In the nanobody polyreactivity screen of Harvey et al. (2022):

Assay: yeast display, Sf9 membrane polyspecificity reagent, FACS + sequencing; frameworks hold sequencing errors
Outline: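 Nanobodies came from a synthetic yeast display library in Saccharomyces cerevisiae BJ5465, induced with galactose for 36–48 hours and stained for 1 hour at 4 °C with 10% biotinylated, detergent-solubilized Sf9 membrane reagent. Cells were enriched on streptavidin microbeads and then FACS-sorted, with low and high (top ~1%) gates set on anti-HA fluorescence for expression and streptavidin fluorescence for reagent binding. Each polyreactivity label reflects the gate a clone came from. Genes were amplified by colony PCR, sequenced by MiSeq 2 × 250 and filtered by CDR length.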

## QVQLVESGGGLVQAGGSLRLSCAASGGTFGAYAMGWYRPAPGKERELVAAISGSGARTYYADSVKGRFTISRDNAKNTVYLQMNSLKPEDTAVYYCAARSTGTRVGEYDYWGQGTQVTVSS
  polyreactivity (PSR sort gate): high polyreactivity

## QVQLVESGGGLVQAGGSLRLSCAASGGTFGINDMGWYRQAPGKERDLVAAISWSGGDTYYADSVKGRFTISRDNAKNTVYLQRNSLKPEDTAVYYCAADYHYTKSMYYWGQGTQVSVSS
  polyreactivity (PSR sort gate): low polyreactivity

## QVQLVESGGGLVQAGGSLRLSCAASGGTFGKYTMGWSRQAPGKERELVAAINKSGGSTYYADSVKGRFTISRDNAKNTVYLQMNSLKPEDTAVYYCAAGTYFLSREYNYWGQGTQVTVSS
  polyreactivity (PSR sort gate): low polyreactivity

## QVQLVESGGGLVQAGGSLRLSCAASGGTFGLNAMGWSRLAPGKARELVADIDGRGGSTYYADSVKGRFTISRDNSKNTVYLQMNSRNPEDTAVYYCAARAPFLSVPSELDYWGQCTQVTVSS
  polyreactivity (PSR sort gate): low polyreactivity

## QVQLVESGGGLVQAGGSLRLSCAASGGTFGNYAMGWYRQAPGKERELVAAISTRGGSTYYADSVKGRFTISCDNAKNTVYLQMNSLKPEDTAVYYCNARIKRPRGVYGGDYWGQGTQVTVSS
  polyreactivity (PSR sort gate): high polyreactivity

## QVQLVESGGGLVQAGGSLRLSCAASGGTFGRYAMGWYRQAPGKERELVASITTGGRTNYADSVKGRFTISRDNAKNTVYLQMNSLKPEDTAVYYCAKKRYGYPLPFYYWGQGTQVTVSS
  polyreactivity (PSR sort gate): high polyreactivity

## QVQLVESGGGLVQAGGSLRLSCAASGGTFGSYAMGWYRQAPAKERELVAAIRSGDRTYYADSVKGRFTISRDNAKNTDYLQMNSLKPEHTAVDYCAAFYHHYYRYDYWGQGTQVTVSS
  polyreactivity (PSR sort gate): low polyreactivity

## QVQLVESGGGLVQAGGSLRLSCAASGGTFGVNAMGWYRQAPGKERELVAAISSSGGRTYYADSVKGRFTISRDNAKNTVYLQVNSLKPEDTAVYYCAARNYFWGQGTQVTVSS
  polyreactivity (PSR sort gate): low polyreactivity

## QVQLVESGGGLVQAGGSLRLSCAASGGTFGVYAMGWYRQAPGKERELVAAIDWDDGNTYYADSVKGRFTLSRDNAKNTVYLQMNSLKPEDTAVYYCAAVVFSRRYWVKFYYWGQGTQVTVSS
  polyreactivity (PSR sort gate): high polyreactivity

## QVQLVESGGGLVQAGGSLRLSCAASGGTFGYNAMGWYRQAPGKERELVAAISYSGTSTYYADSVKGRFTISRDNAKNTVYLQMNSLKPEVTAVYYCNAGRYIKMGDWGQGSQVTVSS
  polyreactivity (PSR sort gate): high polyreactivity

## QVQLVESGGGLVQAGGSLRLSCAASGGTFGYNAMGWYRQAPWKERELVAAISSGGRTYYADSVKGRFTISRDNAKNTVYLQMNSLKPEDTAVYYCNARKGLYYGGRYDYWGQGTQVTVSS
  polyreactivity (PSR sort gate): high polyreactivity

## QVQLVESGGGLVQAGGSLRLSCAASGGTFGYYAMGWYRQAPGKERELVAAITSGGSTNYADSVKGRFTISRDNAKNTVYLQMNSLKPEDTAVYYCAARYINRYPKAQPTDRSIYYWGQGTQVTVSS
  polyreactivity (PSR sort gate): high polyreactivity

## QVQLVESGGGLVQAGGSLRLSCAASGGTFHGYAMGWYRQAPGKERELVAAINWSGTSTYYADSVKGRFTISRDNAKNTVYLQMNRLKPEDTAVYYCAAAYFRGTYYYWGQGTQVTVSS
  polyreactivity (PSR sort gate): high polyreactivity

## QVQLVESGGGLVQAGGSLRLSCAASGGTFKANAMGWYRQAPGKERELVAAIRQTGGSTYYADSVKGRFTISRDNAKNTVYLQMNSLKPEDTAVYYCAAQSHRYCIYDYWGQGTQVTVSS
  polyreactivity (PSR sort gate): high polyreactivity

## QVQLVESGGGLVQAGGSLRLSCAASGGTFKFFAMGLYRQAPGKERELVAAITSGGSTNYADSVKGRFTISRDNAKNTVYLQMNRLKPEDTAVYYCAVDSLPNSPYDYWGQGTQVTVSS
  polyreactivity (PSR sort gate): low polyreactivity

## QVQLVESGGGLVQAGGSLRLSCAASGGTFLGNAMGWYRPAPGKERELVADITSGGSTNYADSVKGRFTISRDNAKNTVYLQMNSLKPEDTAVYYCNAEYSTSTVWEYDYWGQGTQVTVSS
  polyreactivity (PSR sort gate): low polyreactivity

## QVQLVESGGGLVQAGGSLRLSCAASGGTFLSNAMGWYRQAPGKERELVASISWGGGSTTYADSVKGRFTISRDNAKNTVYLQMNSLKPEDTAVYYCNALDGPGYYVDYDYWGQGTQVTVSS
  polyreactivity (PSR sort gate): low polyreactivity

## QVQLVESGGGLVQAGGSLRLSCAASGGTFLVNAMGWYRQAPGKERELVATITARVGSTYYADSVKGRFTISRDNAKNTVYLQMNSLKPEDTADYYCAAYPQLWYWDYNYWGQGTQVTVSS
  polyreactivity (PSR sort gate): high polyreactivity

## QVQLVESGGGLVQAGGSLRLSCAASGGTFLVNAMGWYRQSPGKEREWVATITARVASTYYADSVTGRFTISRDNAKNTVYLQMNTLKPEDTAVYYCAARKVWGYTYGYPYYYWGQATQVTVSS
  polyreactivity (PSR sort gate): high polyreactivity

## QVQLVESGGGLVQAGGSLRLSCAASGGTFLVYAMGWYRQAPGKERELVAAITRSGGSTYYADSVKGRFTISRDNAKNTVYLQMNSLKPEDTAVYYCNARYRNSGRYWDWYYYWGQGTQVTVSS
  polyreactivity (PSR sort gate): high polyreactivity

## QVQLVESGGGLVQAGGSLRLSCAASGGTFLYYAMGWYRQAPGKERELVAAISRGGSTHYADSVKGRFTISRDNAKNTVYLQMNSLKPEDTAVYYCAADRSHRKRINFYDYWGQGTQVTVSS
  polyreactivity (PSR sort gate): low polyreactivity

## QVQLVESGGGLVQAGGSLRLSCAASGGTFLYYMGWYRQAPGKEMELVAAITFSGGSTYYADSVKGRFTISRDNAKNTVYLQMNSLKPEDTAVYYCAAGWYDWPKYLLSVYTYYLYDSWGQGTQVTVSS
  polyreactivity (PSR sort gate): low polyreactivity

## QVQLVESGGGLVQAGGSLRLSCAASGGTFNGYALGWYRQAPGKERELVAAITSGGGSTYADSVKGRFTISRDNAKNTVYLQMNSLKPEDTAVYYCNADQWDEWFWDYDYWGQGTQVTVSS
  polyreactivity (PSR sort gate): low polyreactivity

## QVQLVESGGGLVQAGGSLRLSCAASGGTFPFNAMGRYRQAPGKEREFVAAISFRGGSTYYADSVKGRFTISRDNAKNTVYLQMNSLKPEDTAVYSCAAYRLRPRNGVYRMDYWGQGTQVTVSS
  polyreactivity (PSR sort gate): high polyreactivity

## QVQLVESGGGLVQAGGSLRLSCAASGGTFPGYTMGWNRQAPGKERELVAAISGSGVSTYYADSVKGRFTISRDNAKNTVYLQMNSLKPEDTAVYYCARTYRSYSRYPFVRFDYWGQGTQVTVSS
  polyreactivity (PSR sort gate): high polyreactivity

## QVQLVESGGGLVQAGGSLRLSCAASGGTFPSYAMGWYRQAPGKERELVAAISWSGGRTYYADSVKGRFTISRDNAKNTVYLQMNSLKPEDTAVYYCNADDYGYSFNYWGQGTQVTVSS
  polyreactivity (PSR sort gate): high polyreactivity

## QVQLVESGGGLVQAGGSLRLSCAASGGTFPYNAMGGYRQAPGKERELVAVITSGDGTYYADSVKGRFTISRDNAKNTVYLQMNSLKPEDTAVYYCAADYVVWFSFVYVVEYDYWGQGTQVTVSS
  polyreactivity (PSR sort gate): low polyreactivity

## QVQLVESGGGLVQAGGSLRLSCAASGGTFPYSAMGWYRQAPGKERELVAAISRSGARTYYADSVKGRFTISRDNAKNTVYLQMNSLKPEDTAVYYCATDNTYGYDYWGQGTQVTVSS
  polyreactivity (PSR sort gate): high polyreactivity

## QVQLVESGGGLVQAGGSLRLSCAASGGTFQLNAMGWYRQAPGKERELVATITTGGSTYADSVKGRFTISRDNAKNTVYLQMNSLKPEDTAVYYCNKTCFLVKLDYWGQGTQVTVSS
  polyreactivity (PSR sort gate): low polyreactivity

## QVQLVESGGGLVQAGGSLRLSCAASGGTFQRYVMGWYRQAPGKERELVAAISRSGSTYADSVKGRFTISRDNAKNTVYLQMKSLKPEDTAVYYCNVVSYYRYYLHGYDYWGQGTQVTVSS
  polyreactivity (PSR sort gate): high polyreactivity

## QVQLVESGGGLVQAGGSLRLSCAASGGTFQYHAMGWYRQAPGKERELVAAITRSGGSTYYADSVKGRFTISRDNAKNTVYLQMNSLKPEDTAVYYCAVRYVYGYPRYNYWGQGTQVTVSS
  polyreactivity (PSR sort gate): high polyreactivity

## QVQLVESGGGLVQAGGSLRLSCAASGGTFRNNAMGWYRQAPGKERELVAAISWSGGRTYYADSVKGRFTISRDNAKNTVYLQMNSLKPEDTAVYYCAASYSGRQDRYPHYDYWGQGTQVTVSS
  polyreactivity (PSR sort gate): low polyreactivity

## QVQLVESGGGLVQAGGSLRLSCAASGGTFRPNAMGLYRQAPGKERELVAAISYTGSTYYADSVKGRFTISRDNAKYTVYLQMNSMKPEDTAVYYCAAYGYHRYYLYDYWGQGTQVTVSS
  polyreactivity (PSR sort gate): low polyreactivity

## QVQLVESGGGLVQAGGSLRLSCAASGGTFRYYALGWYRQAPGKERALVAAISSGGSTNYADSVKGRFTISRDNAKNTVYLQMNSLKPEDTAVYYCAADVIYYYAYYTYDYWGQGTQVTVSS
  polyreactivity (PSR sort gate): low polyreactivity

## QVQLVESGGGLVQAGGSLRLSCAASGGTFSFNAMGWSRQAPGKERELVATISWDGGSTYYADSVKGRFTISRDNAKNTVYLQMYSLKPEDTAVYYCNKYVFDRYIYETEYDYWGQGTQVTVSS
  polyreactivity (PSR sort gate): high polyreactivity

## QVQLVESGGGLVQAGGSLRLSCAASGGTFSFYTMVWYRQAPGKERELVAAIDSTGRTNYADSVKGRFTISRDNAKNTVYLQMNSLKPEDTAVYYCAAGPPRADYDYWGQGTQVTVSS
  polyreactivity (PSR sort gate): low polyreactivity

## QVQLVESGGGLVQAGGSLRLSCAASGGTFSNNAMGWYRQAPGKERELVAAISNSGGRTYYADSVKGRFTISRDNAKNTVYLQMNSLKPEDTAVYYCNVRRGYWHPGYGWANYDYWGQGTQVTVSS
  polyreactivity (PSR sort gate): high polyreactivity

## QVQLVESGGGLVQAGGSLRLSCAASGGTFSPNTMGWYRQAPGKERELVAAISSSGSTSYADSVKGRFTISRDNAKNTVYLQMNSLKPEDTAVYYCNADDTISYYASGFDNYHYWGQGTQVTVSS
  polyreactivity (PSR sort gate): low polyreactivity

## QVQLVESGGGLVQAGGSLRLSCAASGGTFSPYAMGWYRQAPGKERELVAVIRSDVTTNYADSVKGRFTISRDNAKNTVYLQMNSLKPEDTAVYYCAVQYLGYGGLFPLDYWGQGTQVTVSS
  polyreactivity (PSR sort gate): low polyreactivity

## QVQLVESGGGLVQAGGSLRLSCAASGGTFSPYDMGWYRQAPGKERELVASITGSGGSTYYADSVKGRFTISRGNAKNTVYLQMNSLKPEDTAVYYCAAQGYWTYWPYLLRLYDYWGQGTQVTVSS
  polyreactivity (PSR sort gate): low polyreactivity

## QVQLVESGGGLVQAGGSLRLSCAASGGTFSRNAMGWYRQAPGKERELVAAINSSGVSTSYADSVKGRFTISRDNAKNTVYLQMNSLKPEDTAVYYCADETSSAEVDYWGQGTQVTVSS
  polyreactivity (PSR sort gate): low polyreactivity

## QVQLVESGGGLVQAGGSLRLSCAASGGTFSRNAMGWYRQAPGKERELVAAITSGGRTNYADSVKGRFTISRDNAKNTVYLKMNSLKAEDTAVYYCAARKGKETLYHSTPPYYYWGQGTQVTVSS
  polyreactivity (PSR sort gate): high polyreactivity

## QVQLVESGGGLVQAGGSLRLSCAASGGTFSSNAMGWYRQAPGKERELVAAITWSGGSTYYADSVKGRFTISRDNAKNTVYLQMNSLKPEDTAVYYCNARNQWRTVGKYDYWGQGTQVTVSS
  polyreactivity (PSR sort gate): low polyreactivity
